In patent US20110091993A1 (SEKISUI MEDICAL, published 2011):
Blank lines part the entries; values can stand above or below the molecule they belong to.

Legend:
[1] = target: T1, purified human soluble LR11 (human, UniProt Q92673 82-2137, limits assumed); experiment: sandwich ELISA, immobilized mouse IgG, liquid-phase biotinylated R14
T1 construct: Natural shed soluble form from serum (Lot. 061208); Also used for native soluble LR11 measured directly in human serum and cerebrospinal fluid; also called purified human LR11; soluble LR11 in human serum
T1 sequence (Q92673 82-2137 limits assumed): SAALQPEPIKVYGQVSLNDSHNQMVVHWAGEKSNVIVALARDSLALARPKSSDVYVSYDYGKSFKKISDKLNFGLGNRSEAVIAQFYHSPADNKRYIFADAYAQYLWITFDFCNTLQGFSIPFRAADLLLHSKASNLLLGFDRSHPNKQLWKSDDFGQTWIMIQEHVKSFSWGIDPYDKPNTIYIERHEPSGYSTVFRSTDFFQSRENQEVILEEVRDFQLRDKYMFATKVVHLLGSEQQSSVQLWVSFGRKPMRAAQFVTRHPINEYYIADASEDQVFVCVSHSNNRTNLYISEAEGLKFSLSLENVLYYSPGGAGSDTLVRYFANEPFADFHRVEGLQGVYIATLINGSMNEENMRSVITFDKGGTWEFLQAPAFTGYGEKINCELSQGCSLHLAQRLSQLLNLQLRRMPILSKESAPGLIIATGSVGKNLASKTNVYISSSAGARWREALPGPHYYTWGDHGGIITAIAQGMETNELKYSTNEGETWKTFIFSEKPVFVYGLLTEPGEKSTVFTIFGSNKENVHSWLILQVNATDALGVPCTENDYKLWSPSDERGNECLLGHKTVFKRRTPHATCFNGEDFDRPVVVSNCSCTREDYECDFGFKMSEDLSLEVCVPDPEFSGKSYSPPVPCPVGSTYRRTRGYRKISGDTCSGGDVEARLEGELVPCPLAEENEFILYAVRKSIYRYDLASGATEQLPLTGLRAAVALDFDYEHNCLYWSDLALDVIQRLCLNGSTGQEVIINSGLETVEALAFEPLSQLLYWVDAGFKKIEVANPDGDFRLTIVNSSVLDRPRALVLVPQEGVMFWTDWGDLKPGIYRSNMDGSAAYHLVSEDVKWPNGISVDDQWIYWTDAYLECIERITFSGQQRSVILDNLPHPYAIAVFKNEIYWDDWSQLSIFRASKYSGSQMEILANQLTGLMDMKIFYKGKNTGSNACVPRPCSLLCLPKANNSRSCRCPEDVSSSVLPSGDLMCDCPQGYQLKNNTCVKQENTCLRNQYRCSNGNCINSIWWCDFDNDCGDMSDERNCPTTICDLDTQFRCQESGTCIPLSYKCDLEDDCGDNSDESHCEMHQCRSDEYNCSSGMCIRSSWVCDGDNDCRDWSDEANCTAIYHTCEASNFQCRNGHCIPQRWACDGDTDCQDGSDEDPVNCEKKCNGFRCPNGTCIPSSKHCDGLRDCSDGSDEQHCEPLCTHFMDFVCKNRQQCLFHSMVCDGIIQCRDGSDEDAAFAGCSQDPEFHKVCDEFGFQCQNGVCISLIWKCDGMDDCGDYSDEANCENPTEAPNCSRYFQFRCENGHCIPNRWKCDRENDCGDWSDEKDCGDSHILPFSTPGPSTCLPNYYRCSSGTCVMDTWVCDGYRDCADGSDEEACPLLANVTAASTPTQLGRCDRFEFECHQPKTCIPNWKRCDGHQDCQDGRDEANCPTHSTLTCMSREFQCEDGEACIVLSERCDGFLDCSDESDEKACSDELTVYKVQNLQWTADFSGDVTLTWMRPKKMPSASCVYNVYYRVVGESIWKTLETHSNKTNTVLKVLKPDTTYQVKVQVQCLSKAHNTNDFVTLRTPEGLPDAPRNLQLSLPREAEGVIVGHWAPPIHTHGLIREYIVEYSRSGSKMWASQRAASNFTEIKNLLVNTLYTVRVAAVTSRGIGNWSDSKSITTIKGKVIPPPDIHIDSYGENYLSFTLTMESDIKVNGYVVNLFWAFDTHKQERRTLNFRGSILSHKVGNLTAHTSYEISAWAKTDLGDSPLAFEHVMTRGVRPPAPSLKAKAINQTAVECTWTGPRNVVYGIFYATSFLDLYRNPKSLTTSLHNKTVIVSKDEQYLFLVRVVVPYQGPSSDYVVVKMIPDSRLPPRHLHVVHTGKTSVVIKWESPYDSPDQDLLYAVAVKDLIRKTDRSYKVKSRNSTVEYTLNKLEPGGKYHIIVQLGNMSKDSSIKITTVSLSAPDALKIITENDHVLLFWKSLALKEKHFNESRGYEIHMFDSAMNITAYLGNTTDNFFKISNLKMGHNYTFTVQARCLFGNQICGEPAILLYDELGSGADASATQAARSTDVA

[2] = target: T2, purified rabbit soluble LR11 (rabbit, UniProt Q95209 82-2136, limits assumed); experiment: as above
T2 construct: also called purified rabbit LR11; soluble LR11 in rabbit serum
T2 sequence (Q95209 82-2136 limits assumed): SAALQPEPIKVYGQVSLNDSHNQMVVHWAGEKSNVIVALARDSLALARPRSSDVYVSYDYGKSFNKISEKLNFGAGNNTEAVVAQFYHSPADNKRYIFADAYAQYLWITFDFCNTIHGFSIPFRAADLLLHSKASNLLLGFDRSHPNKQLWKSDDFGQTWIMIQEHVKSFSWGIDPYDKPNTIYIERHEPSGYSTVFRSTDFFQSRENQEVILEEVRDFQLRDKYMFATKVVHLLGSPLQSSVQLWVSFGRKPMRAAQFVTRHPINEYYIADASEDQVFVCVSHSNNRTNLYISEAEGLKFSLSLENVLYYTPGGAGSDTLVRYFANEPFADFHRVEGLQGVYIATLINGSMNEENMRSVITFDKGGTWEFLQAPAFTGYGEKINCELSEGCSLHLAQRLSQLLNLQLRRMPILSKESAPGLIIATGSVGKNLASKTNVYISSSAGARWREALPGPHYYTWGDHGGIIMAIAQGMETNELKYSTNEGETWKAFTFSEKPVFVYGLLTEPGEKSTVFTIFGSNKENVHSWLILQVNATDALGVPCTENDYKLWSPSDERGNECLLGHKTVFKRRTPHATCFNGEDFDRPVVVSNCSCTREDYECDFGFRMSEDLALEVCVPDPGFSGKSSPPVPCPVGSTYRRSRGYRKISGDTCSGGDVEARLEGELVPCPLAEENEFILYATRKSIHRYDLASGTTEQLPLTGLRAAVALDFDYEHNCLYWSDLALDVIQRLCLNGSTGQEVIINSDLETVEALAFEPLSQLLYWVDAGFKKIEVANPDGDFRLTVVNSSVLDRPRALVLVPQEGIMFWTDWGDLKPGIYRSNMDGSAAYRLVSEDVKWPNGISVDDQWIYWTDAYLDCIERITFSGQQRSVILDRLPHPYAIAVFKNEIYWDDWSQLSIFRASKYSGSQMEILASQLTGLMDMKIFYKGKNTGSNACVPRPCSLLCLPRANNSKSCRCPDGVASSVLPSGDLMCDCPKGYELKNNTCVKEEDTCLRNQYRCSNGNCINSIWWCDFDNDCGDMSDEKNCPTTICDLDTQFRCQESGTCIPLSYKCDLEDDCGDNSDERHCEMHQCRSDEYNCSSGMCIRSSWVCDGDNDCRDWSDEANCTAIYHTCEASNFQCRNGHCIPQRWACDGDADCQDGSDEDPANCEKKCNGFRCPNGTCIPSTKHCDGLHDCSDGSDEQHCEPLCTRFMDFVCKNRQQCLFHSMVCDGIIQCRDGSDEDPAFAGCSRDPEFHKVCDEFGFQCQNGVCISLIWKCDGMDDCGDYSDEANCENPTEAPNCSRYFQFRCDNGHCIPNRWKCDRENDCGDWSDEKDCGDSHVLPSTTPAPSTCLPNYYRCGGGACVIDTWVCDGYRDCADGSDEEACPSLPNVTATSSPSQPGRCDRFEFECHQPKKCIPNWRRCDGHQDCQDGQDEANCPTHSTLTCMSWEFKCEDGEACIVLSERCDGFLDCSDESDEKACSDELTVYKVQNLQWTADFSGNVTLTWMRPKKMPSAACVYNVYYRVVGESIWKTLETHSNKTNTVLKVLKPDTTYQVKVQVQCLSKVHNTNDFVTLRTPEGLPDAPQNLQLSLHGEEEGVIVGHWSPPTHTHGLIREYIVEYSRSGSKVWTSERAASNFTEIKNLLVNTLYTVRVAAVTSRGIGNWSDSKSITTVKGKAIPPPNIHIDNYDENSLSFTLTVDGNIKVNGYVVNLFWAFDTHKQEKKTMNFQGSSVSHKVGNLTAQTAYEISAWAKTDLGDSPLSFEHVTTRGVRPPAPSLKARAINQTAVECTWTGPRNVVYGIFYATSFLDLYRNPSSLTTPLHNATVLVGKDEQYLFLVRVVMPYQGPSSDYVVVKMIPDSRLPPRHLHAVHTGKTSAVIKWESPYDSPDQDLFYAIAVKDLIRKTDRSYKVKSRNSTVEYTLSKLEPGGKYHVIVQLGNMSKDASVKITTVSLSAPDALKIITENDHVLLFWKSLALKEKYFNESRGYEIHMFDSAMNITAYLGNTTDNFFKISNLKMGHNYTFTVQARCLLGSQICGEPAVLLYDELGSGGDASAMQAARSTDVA

[3] = target: T1, purified human soluble LR11; experiment: sandwich ELISA, immobilized mouse IgG, liquid-phase biotinylated mouse IgG
[4] = target: T2, purified rabbit soluble LR11; experiment: as above
[5] = target: T1, purified human soluble LR11; experiment: sandwich ELISA, immobilized mouse IgG, liquid-phase biotinylated R23
[6] = target: T2, purified rabbit soluble LR11; experiment: as above
[7] = target: T1, purified human soluble LR11; experiment: sandwich ELISA, immobilized mouse IgG, liquid-phase biotinylated M5
[8] = target: T2, purified rabbit soluble LR11; experiment: as above
[9] = target: T1, purified human soluble LR11; experiment: sandwich ELISA, immobilized mouse IgG, liquid-phase biotinylated A2-2-3
[10] = target: T2, purified rabbit soluble LR11; experiment: as above
[11] = target: T1, purified human soluble LR11; experiment: sandwich ELISA, immobilized mouse IgG, liquid-phase biotinylated M3
[12] = target: T2, purified rabbit soluble LR11; experiment: as above
[13] = target: T1, purified human soluble LR11; experiment: affinity capture from serum on RAP/GST bound to Glutathione Sepharose
[14] = target: T2, purified rabbit soluble LR11; experiment: as above

- Absorbance (492 nm) (Absorbance (492 nm)) [1]: -0.017
- Absorbance (492 nm) (Absorbance (492 nm)) [2]: -0.019
- Absorbance (492 nm) (Absorbance (492 nm)) [3]: -0.003
- Absorbance (492 nm) (Absorbance (492 nm)) [4]: 0.043
- Absorbance (492 nm) (Absorbance (492 nm)) [5]: -0.02
- Absorbance (492 nm) (Absorbance (492 nm)) [6]: -0.026
- Absorbance (492 nm) (Absorbance (492 nm)) [7]: 0.007
- Absorbance (492 nm) (Absorbance (492 nm)) [8]: -0.017
- Absorbance (492 nm) (Absorbance (492 nm)) [9]: 0.015
- Absorbance (492 nm) (Absorbance (492 nm)) [10]: -0.017
- Absorbance (492 nm) (Absorbance (492 nm)) [11]: 0.024
- Absorbance (492 nm) (Absorbance (492 nm)) [12]: -0.017
Molecule: mouse IgG (negative control) (antibody)

- binding result [13]: binds
- binding result [14]: binds
B1: RAP/GST fusion protein (other, human, UniProt P30533 35-357, looked up)
chain: YSREKNQPKPSPKRESGEEFRMEKLNQLWEKAQRLHLPPVRLAELHADLKIQERDELAWKKLKLDGLDEDGEKEARLIRNLNVILAKYGLDGKKDARQVTSNSLSGTQEDGLDDPRLEKLWHKAKTSGKFSGEELDKLWREFLHHKEKVHEYNVLLETLSRTEEIHENVISPSDLSDIKGSVLHSRHTELKEKLRSINQGLDRLRRVSHQGYSTEAEFEEPRVIDLWDLAQSANLTDKELEAFREELKHFEAKIEKHNHYQKQLEIAHEKLRHAESVGDGERVSRSREKHALLEGRTKELGYTVKKHLQDLSGRISRARHNEL
notes: Expressed in E. coli DH5alpha and adsorbed on Glutathione Sepharose 4 FF; also called RAP-Sepharose resin; RAP (receptor associated protein); not shown: GST encoded by vector pGEX2T (GE Healthcare Bio Science)
